In the supplement of paper PMC10567573 one finds protein stability index data, which are given here for 94 variants.

First the molecules themselves.
B1: PSD2 (parent)
chain: LTHFSRRYCQCNPDDSTSEDGIHT
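Note: lentivirally expressed fusions sorted by FACS into six bins by GFP to DsRed ratio, PSI derived from sequencing read proportions per bin multiplied by bin number.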

The variants in the series derive from B1. Nature of the series: protein stability index of a GFP-peptide fusion (GPS, HEK-293T) (PSI 1-6); higher = more stable. The following applies: c terminus: a fixed tail appended.
On to LTHFSRRYCQCNPDDSTKEDGIHT, for which the protein stability index is 2.88.
With LTHFSRRYCQCNPDDSTEEDGIHT, the protein stability index was found to be 3.17.
Regarding LTHFSRRYCQCNPDDSTPEDGIHT, the protein stability index was determined as 3.58.
On to LTHFSRRYCQCNPDDSTAEDGIHT, for which the protein stability index was 3.7.
The figure for LTHFSRRYCQCNPDDSTMEDGIHT is 2.97; for LTHFSRRYCQCNPDDSTTEDGIHT it is 2.57.
As for LTHFSRRYCQCNPDDSTWEDGIHT, the protein stability index was found to be 2.28.
In the case of LTHFSRRYCQCNPDDSTQEDGIHT, the protein stability index turned out to be 3.43.
For LTHFSRRYCQCNPDDSTVEDGIHT, the protein stability index stood at 2.35.
For LTHFSRRYCQCNPDDSTDEDGIHT, the protein stability index stood at 4.03.
For LTHFSRRYCQCNPDDSTNEDGIHT, the protein stability index was 3.67.
Take LTHFSRRYCQCNPDDSTYEDGIHT: the protein stability index is 2.35.
For the variant LTHFSRRYCQCNPDDSTHEDGIHT, the protein stability index is 3.5.
Regarding LTHFSRRYCQCNPDDSTIEDGIHT, the protein stability index amounted to 2.99.
Turning to LTHFSRRYCQCNPDDSTGEDGIHT, the protein stability index came to 2.93.
As for LTHFSRRYCQCNPDDSTLEDGIHT, the protein stability index was determined as 2.35.
With LTHFSRRYCQCNPDDSTFEDGIHT, the protein stability index was found to be 2.63.
LTHFSRRYCQCNPDDSTREDGIHT: the protein stability index stood at 1.89.
For the variant LTHFSRRYCQCNPDDSTCEDGIHT, the protein stability index is 3.69.
As for LTHFSRRYCQCNPDDSTSEDGIWT, the figure is 2.62.
The figure for LTHFSRRYCQCNPDDSTSEDGITT is 2.75; for LTHFSRRYCQCNPDDSTSEDGIPT it is 3.9; for LTHFSRRYCQCNPDDSTSEDGIQT it is 3.73.
Turning to LTHFSRRYCQCNPDDSTSEDGILT, the protein stability index came out at 3.73.
With LTHFSRRYCQCNPDDSTSEDGIDT, the protein stability index was determined as 3.58.
As for LTHFSRRYCQCNPDDSTSEDGIIT, the figure is 3.21.
The figure for LTHFSRRYCQCNPDDSTSEDGIVT is 2.93.
LTHFSRRYCQCNPDDSTSEDGIRT: the protein stability index was 2.95.
With LTHFSRRYCQCNPDDSTSEDGIKT, the protein stability index was 2.92.
Regarding LTHFSRRYCQCNPDDSTSEDGIMT, the protein stability index was 3.82.
As for LTHFSRRYCQCNPDDSTSEDGIET, the figure is 3.91.
On to LTHFSRRYCQCNPDDSTSEDGIFT, for which the protein stability index came out at 2.01.
As for LTHFSRRYCQCNPDDSTSEDGIST, the figure is 4.2; as for LTHFSRRYCQCNPDDSTSEDGINT, 3.64; as for LTHFSRRYCQCNPDDSTSEDGIYT, 3.58.
As for LTHFSRRYCQCNPDDSTSEDGIAT, the figure is 3.66.
Turning to LTHFSRRYCQCNPDDSTSEDGIGT, the protein stability index was found to be 3.69.
Take LTHFSRRYCQCNPDDSTSEDGICT: the protein stability index was determined as 3.16.
Take LTHFSRRYCQCNPDDSRSEDGIHT: the protein stability index worked out at 2.78.
Take LTHFSRRYCQCNPDDSKSEDGIHT: the protein stability index is 3.6.
For the variant LTHFSRRYCQCNPDDSESEDGIHT, the protein stability index came out at 3.41.
Regarding LTHFSRRYCQCNPDDSASEDGIHT, the protein stability index is 3.02.
With LTHFSRRYCQCNPDDSISEDGIHT, the protein stability index amounted to 2.85.
As for LTHFSRRYCQCNPDDSGSEDGIHT, the figure is 2.7; as for LTHFSRRYCQCNPDDSHSEDGIHT, 3.18.
As for LTHFSRRYCQCNPDDSWSEDGIHT, the figure is 2.17; as for LTHFSRRYCQCNPDDSLSEDGIHT, 2.66; as for LTHFSRRYCQCNPDDSFSEDGIHT, 2.77.
For LTHFSRRYCQCNPDDSCSEDGIHT, the protein stability index stood at 2.72.
As for LTHFSRRYCQCNPDDSYSEDGIHT, the figure is 2.39; as for LTHFSRRYCQCNPDDSDSEDGIHT, 4.02.
Consider LTHFSRRYCQCNPDDSSSEDGIHT, for which the protein stability index was found to be 2.78.
For LTHFSRRYCQCNPDDSNSEDGIHT, the protein stability index is 3.6.
On to LTHFSRRYCQCNPDDSQSEDGIHT, for which the protein stability index worked out at 3.89.
LTHFSRRYCQCNPDDSMSEDGIHT: the protein stability index is 3.09.
For the variant LTHFSRRYCQCNPDDSPSEDGIHT, the protein stability index worked out at 3.68.
Turning to LTHFSRRYCQCNPDDSVSEDGIHT, the protein stability index came to 2.78.
For the variant LTHFSRRYCQCNPDDSTSEDGIHA, the protein stability index was 3.46.
As for LTHFSRRYCQCNPDDSTSEDGIHC, the figure is 2.68.
Regarding LTHFSRRYCQCNPDDSTSEDGIHE, the protein stability index stood at 4.08.
For LTHFSRRYCQCNPDDSTSEDGIHF, the protein stability index was determined as 2.08.
In the case of LTHFSRRYCQCNPDDSTSEDGIHG, the protein stability index is 3.27.
Turning to LTHFSRRYCQCNPDDSTSEDGIHD, the protein stability index was found to be 3.86.
Consider LTHFSRRYCQCNPIDSTSEDGIHT, for which the protein stability index came to 2.08.
The figure for LTHFSRRYCQCNPYDSTSEDGIHT is 1.99; for LTHFSRRYCQCNPWDSTSEDGIHT it is 1.59; for LTHFSRRYCQCNPNDSTSEDGIHT it is 2.45.
As for LTHFSRRYCQCNPMDSTSEDGIHT, the figure is 2.27.
In the case of LTHFSRRYCQCNPPDSTSEDGIHT, the protein stability index amounted to 2.06.
As for LTHFSRRYCQCNPSDSTSEDGIHT, the figure is 2.49.
LTHFSRRYCQCNPRDSTSEDGIHT: the protein stability index is 2.24.
The figure for LTHFSRRYCQCNPQDSTSEDGIHT is 2.54; for LTHFSRRYCQCNPHDSTSEDGIHT it is 2.14.
As for LTHFSRRYCQCNPVDSTSEDGIHT, the figure is 2; as for LTHFSRRYCQCNPLDSTSEDGIHT, 2.13.
As to LTHFSRRYCQCNPTDSTSEDGIHT, the protein stability index is 2.13.
Regarding LTHFSRRYCQCNPKDSTSEDGIHT, the protein stability index stood at 2.49.
In the case of LTHFSRRYCQCNPDDSTSEDGEHT, the protein stability index worked out at 3.87.
As for LTHFSRRYCQCNPDDSTSEDGNHT, the figure is 3.98; as for LTHFSRRYCQCNPDDSTSEDGTHT, 3.59.
In the case of LTHFSRRYCQCNPDDSTSEDGPHT, the protein stability index was 2.9.
Regarding LTHFSRRYCQCNPDDSTSEDGFHT, the protein stability index was 2.72.
On to LTHFSRRYCQCNPDDSTSEDGMHT, for which the protein stability index is 3.49.
Take LTHFSRRYCQCNPDDSTSEDGVHT: the protein stability index is 3.71.
LTHFSRRYCQCNPDDSTSEDGRHT: the protein stability index is 3.22.
The figure for LTHFSRRYCQCNPDDSTSEDGHHT is 3.7.
LTHFSRRYCQCNPDDSTSEDGAHT: the protein stability index stood at 3.91.
Consider LTHFSRRYCQCNPDDSTSEDGWHT, for which the protein stability index was determined as 2.43.
As for LTHFSRRYCQCNPDDSTSEDGQHT, the figure is 3.85.
In the case of LTHFSRRYCQCNPDDSTSEDGDHT, the protein stability index was 4.27.
On to LTHFSRRYCQCNPDDSTSEDGGHT, for which the protein stability index was found to be 3.66.
LTHFSRRYCQCNPDDSTSEDGSHT: the protein stability index was determined as 3.87.
Regarding LTHFSRRYCQCNPDDSTSEDGLHT, the protein stability index amounted to 3.24.
LTHFSRRYCQCNPDDSTSEDGKHT: the protein stability index is 3.12.
